Assay results from patent US5302370A, “Chelating agents for forming complexes with radioactive isotopes, metal complexes thereof and use thereof in diagnosis and therapy” (Institut fur Diagnostikforschung GmbH, priority 1989, dated 1994).

Legend:
[1] = system: antigen expressed from the human carcinoma cell line "HT-29"; experiment: Immune reactivity of the conjugates by bonding to an excess of antigen in the cell; assay type: binding; conditions: after gel filtration on PD 10
Method: (§1) The bio-distribution of protein-bonded chelates will be described, using a conjugate of F(ab)2 fragments of the monoclonal antibody 17-1A and the compound [7] prepared in Example 1 as a model. The antibody from which the fragments were obtained recognise an antigen expressed from the human carcinoma cell line "HT-29". […] Isolated cells from both lines were subcutaneously administered to immune-deficient hairless mice. After the tumours had grown to a size of 300-800 mg, the mice were intravenously given 20 μg of the chelate conjugate [Example 17] labelled with 200 μCi. The conjugates were first freed from low-molecular constituents by gel filtration on PD 10 columns manufactured by Messrs. Bio-Rad. The immune reactivity of the conjugates was 70-80% as determined by bonding to an excess of antigen in the cell. The bio-distribution 24 hours after administration of the conjugate was determined by killing the animals, removing the organs and measuring the radioactivity therein.

[2] = system: HT-29 human carcinoma (antigen-positive tumour); experiment: Bio-distribution of a protein-bonded Tc-99m complex in hairless mice: antigen-positive HT-29 tumour; assay type: in vivo, human carcinoma in immune-deficient hairless mice
Method: (§2) The monoclonal antibody 17-1A was obtained by methods known in the literature, after application of 10^7 of the corresponding hybridoma cells to the abdominal cavity of a Balb/c-mouse and suction of the ascites fluid after 7-10 days. Purification was brough about likewise by methods known in the literature, by ammonium sulphate precipitation and affinity chromatography over protein A-sepharose. The purified antibody (10 mg/ml) was treated with 25 μg/ml pepsin at pH 3.5 for 2 hours and then isolated by FPLC. Before coupling to the chelating agent, the fragments were dialysed against 0.1M KH2 PO4 /0.1M NaHCO3, pH 8.5, at 4° C. for 12-24 hours. The protein concentration was adjusted to 10 mg/ml. A 5-fold molar excess of the NCS-containing chelating agent [Example 1] was dissolved in a minimum amount of the same buffer and added to the protein solution. […]
(§3) The bio-distribution of protein-bonded chelates will be described, using a conjugate of F(ab)2 fragments of the monoclonal antibody 17-1A and the compound [7] prepared in Example 1 as a model. […] The immune reactivity of the conjugates was 70-80% as determined by bonding to an excess of antigen in the cell. The bio-distribution 24 hours after administration of the conjugate was determined by killing the animals, removing the organs and measuring the radioactivity therein.

[3] = system: MX-1 human carcinoma (control, antigen not expressed); experiment: Bio-distribution of a protein-bonded Tc-99m complex in hairless mice: antigen-negative MX-1 control tumour; assay type: in vivo, human carcinoma in immune-deficient hairless mice; conditions: MX-1 tumour (300-800 mg); 24 hours after i.v. 20 μg conjugate labelled with 200 μCi
Method: as §2, §3

[4] = Bio-distribution of a protein-bonded Tc-99m complex in tumour-bearing hairless mice: organs; assay type: in vivo, immune-deficient hairless mice; conditions: 24 hours after i.v. 20 μg conjugate labelled with 200 μCi
Method: The monoclonal antibody 17-1A was obtained by methods known in the literature, after application of 10^7 of the corresponding hybridoma cells to the abdominal cavity of a Balb/c-mouse and suction of the ascites fluid after 7-10 days. Purification was brough about likewise by methods known in the literature, by ammonium sulphate precipitation and affinity chromatography over protein A-sepharose. The purified antibody (10 mg/ml) was treated with 25 μg/ml pepsin at pH 3.5 for 2 hours and then isolated by FPLC. Before coupling to the chelating agent, the fragments were dialysed against 0.1M KH2 PO4 /0.1M NaHCO3, pH 8.5, at 4° C. for 12-24 hours. The protein concentration was adjusted to 10 mg/ml. A 5-fold molar excess of the NCS-containing chelating agent [Example 1] was dissolved in a minimum amount of the same buffer and added to the protein solution. In order to form the conjugate, the mixture was incubated at 37° C. for 3 hours. Next, the conjugate was dialysed 24-48 hours against PBS (phosphate-buffered saline) with repeated change of buffer, and the protein concentration was re-adjusted to 10 mg/ml when necessary. Before labelling with Tc-99m, the conjugate could be kept in acid-cleaned glass vessels after sterile filtration at 4° C.
1 mg of the antibody fragment coupled to the chelating agent was labelled with TC-99m by adding 10 mCi pertechnetate solution (=1-2 ml) and 100 μg tin-II chloride in a solution of Na pyrophosphate (1 mg/ml) scavenged with argon or by ligand exchange e.g. by mixing the solution with a commercially obtainable glucoheptonate kit to which pertechnetate had been added.
as §1

B1: conjugate of F(ab)2 fragments of the monoclonal antibody 17-1A and the compound [7]: conjugate of F(ab)2 fragments of the monoclonal antibody 17-1A and the compound [7] prepared in Example 1, … (conjugate, chains of the INN, looked up)
VH: QVQLQQSGAELVRPGTSVKVSCKASGYAFTNYLIEWVKQRPGQGLEWIGVINPGSGGTNYNEKFKGKATLTADKSSSTAYMQLSSLTSDDSAVYFCARDGPWFAYWGQGTLVTVSA
VL: NIVMTQSPKSMSMSVGERVTLTCKASENVVTYVSWYQQKPEQSPKLLIYGASNRYTGVPDRFTGSGSATDFTLTISSVQAEDLADYHCGQGYSYPYTFGGGTKLEIK
modifications: F(ab')2 chelate compound [7], Tc-99m label
Q: For B1, which “immune reactivity of the conjugates” value [1] is on record?
A: Its value is 70-80%.

Q: And the “concentration of the chelate in the antigen-positive tumour” value ([2]; 24 hours after i.v. administration)?
A: Its value is “marked concentration of the chelate in the antigen-positive tumour”.

Q: What about the “% of applied dose per gram of tissue, HT29” value ([2]; HT29 tumour (300-800 mg), 24 hours after i.v. 20 μg conjugate labelled with 200 μCi) of the same molecule?
A: The value was 12.1 % of applied dose per gram of tissue.

Q: What about the “% of applied dose per gram of tissue, MX-1” value [3] of the same molecule?
A: Its value is 1.8 % of applied dose per gram of tissue.

Q: What about the “% of applied dose per gram of tissue, Blood” value ([4]; blood) of the same molecule?
A: The value was 0.6 % of applied dose per gram of tissue.

Q: And the “% of applied dose per gram of tissue, Kidneys” value ([4]; kidneys)?
A: The value was 2.8 % of applied dose per gram of tissue.

Q: And the “% of applied dose per gram of tissue, Liver” value ([4]; liver)?
A: The value was 1.2 % of applied dose per gram of tissue.

Q: And the “% of applied dose per gram of tissue, Lung” value ([4]; lung)?
A: Its value is 0.8 % of applied dose per gram of tissue.

Q: What about the “% of applied dose per gram of tissue, Muscle” value ([4]; muscle) of the same molecule?
A: Its value is 0.1 % of applied dose per gram of tissue.

Q: What about the “% of applied dose per gram of tissue, Spleen” value ([4]; spleen) of the same molecule?
A: Its value is 0.3 % of applied dose per gram of tissue.
